Measurements: US20180346555A1

Legend:
[1] = target: natural Bet v 1 (Indoor Biotechnologies, # NA-BV1-1) (Betula verrucosa (Betula pendula)) (UniProt P15494); assay: blocking ELISA, captured IgE of donor 25299-RJ, 1 ug/mL antibody
[2] = target: natural Bet v 1 (Indoor Biotechnologies, # NA-BV1-1) (Betula verrucosa (Betula pendula)) (UniProt P15494); assay: blocking ELISA, captured IgE of donor 29718-MW, 1 ug/mL antibody
[3] = target: natural Bet v 1 (Indoor Biotechnologies, # NA-BV1-1) (Betula verrucosa (Betula pendula)) (UniProt P15494); assay: blocking ELISA, captured IgE of donor 25414-CW, 1 ug/mL antibody
[4] = target: natural Bet v 1 (Indoor Biotechnologies, # NA-BV1-1) (Betula verrucosa (Betula pendula)) (UniProt P15494); assay: blocking ELISA, captured IgE of donor 23035-BL, 1 ug/mL antibody
[5] = target: natural Bet v 1 (Indoor Biotechnologies, # NA-BV1-1) (Betula verrucosa (Betula pendula)) (UniProt P15494); assay: dose-response blocking ELISA, captured IgE of donor 25340-RR, at 1 ug/mL antibody
[6] = target: natural Bet v 1 (Indoor Biotechnologies, # NA-BV1-1) (Betula verrucosa (Betula pendula)) (UniProt P15494); assay: blocking ELISA, captured IgE of donor 23658-MD, 1 ug/mL antibody
[7] = target: natural Bet v 1 (Indoor Biotechnologies, # NA-BV1-1) (Betula verrucosa (Betula pendula)) (UniProt P15494); assay: blocking ELISA, captured IgE of donor 23939-MH, 1 ug/mL antibody
[8] = target: natural Bet v 1 (Indoor Biotechnologies, # NA-BV1-1) (Betula verrucosa (Betula pendula)) (UniProt P15494); assay: blocking ELISA, captured IgE of donor 25609-MS, 1 ug/mL antibody
[9] = target: natural Bet v 1 (Indoor Biotechnologies, # NA-BV1-1) (Betula verrucosa (Betula pendula)) (UniProt P15494); assay: dose-response blocking ELISA, captured IgE of donor 25609-MS, at 1 ug/mL antibody
[10] = target: natural Bet v 1 (Indoor Biotechnologies, # NA-BV1-1) (Betula verrucosa (Betula pendula)) (UniProt P15494); assay: blocking ELISA, captured IgE of donor 22627-MN, 1 ug/mL antibody
[11] = target: natural Bet v 1 (Indoor Biotechnologies, # NA-BV1-1) (Betula verrucosa (Betula pendula)) (UniProt P15494); assay: blocking ELISA, captured IgE of donor 25340-RR, 1 ug/mL antibody
[12] = target: natural Bet v 1 (Indoor Biotechnologies, # NA-BV1-1) (Betula verrucosa (Betula pendula)) (UniProt P15494); assay: blocking ELISA, captured IgE of donor 26532-CC, 1 ug/mL antibody
[13] = target: natural Bet v 1 (Indoor Biotechnologies, # NA-BV1-1) (Betula verrucosa (Betula pendula)) (UniProt P15494); assay: dose-response blocking ELISA, captured IgE of donor 23939-MH, at 1 ug/mL antibody
[14] = target: Celery (Api g 1, MyBiosource, Cat# MBS 1171376) (Celery) (UniProt P49372); assay: SPR Biacore 4000, mAb captured by anti-human Fc, 25 C
Chain of Celery (Api g 1, MyBiosource, Cat# MBS 1171376) (Celery) (P49372 whole entry): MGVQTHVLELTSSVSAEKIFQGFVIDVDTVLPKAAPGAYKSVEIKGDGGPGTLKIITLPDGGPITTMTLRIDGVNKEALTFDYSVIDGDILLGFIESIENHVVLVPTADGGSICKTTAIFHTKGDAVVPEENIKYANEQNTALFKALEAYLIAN

[15] = target: Hazel (Cor A 1, MyBiosource, Cat# MBS5304600) (Hazel) (UniProt Q08407); assay: as above
Chain of Hazel (Cor A 1, MyBiosource, Cat# MBS5304600) (Hazel) (Q08407 2-160 limits assumed): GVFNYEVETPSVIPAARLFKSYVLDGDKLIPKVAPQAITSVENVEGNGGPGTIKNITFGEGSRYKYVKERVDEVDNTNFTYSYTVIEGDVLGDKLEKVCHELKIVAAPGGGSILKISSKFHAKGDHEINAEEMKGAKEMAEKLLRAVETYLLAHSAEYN

[16] = target: European Hornbeam (Car b 1 isoform 2, MyBiosource, Cat# MBS 1043940) (European Hornbeam) (UniProt P38950); assay: as above
Chain of European Hornbeam (Car b 1 isoform 2, MyBiosource, Cat# MBS 1043940) (European Hornbeam) (P38950 2-160 limits assumed): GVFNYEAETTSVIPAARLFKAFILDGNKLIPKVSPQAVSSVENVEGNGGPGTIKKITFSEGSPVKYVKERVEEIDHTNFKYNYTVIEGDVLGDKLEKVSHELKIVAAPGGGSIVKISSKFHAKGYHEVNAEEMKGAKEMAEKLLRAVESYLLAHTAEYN

[17] = target: Alder (Aln g 1, MyBiosource, Cat# MBS 1041484) (Alder) (UniProt P38948); assay: as above
Chain of Alder (Aln g 1, MyBiosource, Cat# MBS 1041484) (Alder) (P38948 2-160 limits assumed): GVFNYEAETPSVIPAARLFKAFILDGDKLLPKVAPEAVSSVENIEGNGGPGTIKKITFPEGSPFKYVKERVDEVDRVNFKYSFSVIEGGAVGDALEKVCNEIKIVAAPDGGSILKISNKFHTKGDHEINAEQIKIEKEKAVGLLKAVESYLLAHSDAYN

[18] = target: European Hornbeam (Car b 1 isoform 1A & 1B, MyBiosource, Cat#MBS 1200018) (European Hornbeam) (UniProt P38949); assay: as above
Chain of European Hornbeam (Car b 1 isoform 1A & 1B, MyBiosource, Cat#MBS 1200018) (European Hornbeam) (P38949 2-160): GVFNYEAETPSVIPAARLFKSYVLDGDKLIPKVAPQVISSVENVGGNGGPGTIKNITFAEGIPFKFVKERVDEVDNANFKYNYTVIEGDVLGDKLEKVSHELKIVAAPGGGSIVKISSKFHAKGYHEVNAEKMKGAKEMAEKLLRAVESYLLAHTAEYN

[19] = target: Apple (Mal d 1, MyBiosource, Cat# MBS 1224919) (Apple) (UniProt P43211); assay: as above
Chain of Apple (Mal d 1, MyBiosource, Cat# MBS 1224919) (Apple) (P43211 2-159 limits assumed): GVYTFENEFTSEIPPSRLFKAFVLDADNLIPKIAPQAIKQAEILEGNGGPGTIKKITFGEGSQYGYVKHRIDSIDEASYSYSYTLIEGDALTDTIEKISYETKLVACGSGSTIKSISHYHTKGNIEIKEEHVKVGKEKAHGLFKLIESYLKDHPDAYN

Substance	Percent Blocking [1] [%]	Percent Blocking [2] [%]	Percent Blocking [3] [%]	Percent Blocking [4] [%]	Percent Blocking [5] [%]	Percent Blocking [6] [%]	Percent Blocking [7] [%]	Percent Blocking [8] [%]	Percent Blocking [9] [%]	Percent Blocking [10] [%]	Percent Blocking [11] [%]	Percent Blocking [12] [%]	Percent Blocking [13] [%]	100 nM Analyte Bound (RU) [14] [RU]	100 nM Analyte Bound (RU) [15] [RU]	100 nM Analyte Bound (RU) [16] [RU]	100 nM Analyte Bound (RU) [17] [RU]	100 nM Analyte Bound (RU) [18] [RU]	100 nM Analyte Bound (RU) [19] [RU]
Isotype control (antibody)	-4	-2	-4	-5	10.6	-3	-2	-2	8.8	-3	-1	-4	16.8						
Isotype Control (antibody)														-1	1	0	0	0	0
